From paper PMC6917738, “Cooperative ordering of treadmilling filaments in cytoskeletal networks of FtsZ and its crosslinker ZapA” (Nature Communications, 2019)
Read-outs that look alike come from different tables or passages of the source. Values belong to the molecule of their own block, whether it stands above or below them.

Assays:
[1] = molecular target: FtsZ (UniProt P0A9A6); test: FRAP; membrane-bound filament network at steady state (15 min), small area bleached; half-time from fit to I(t) = a(1 - exp(-bt))
[2] = molecular target: FtsZ (UniProt P0A9A6); test: single-molecule tracking by TIRF microscopy; small amounts of Cy5-labelled FtsZ (<2 nM) in 1.5 uM Alexa488-FtsZ, or of ZapA-Cy5 in unlabeled ZapA with 1.5 uM Alexa488-FtsZ, on supported bilayers; lifetime from a mono-exponential fit, corrected for photobleaching
[3] = molecular target: FtsZ (UniProt P0A9A6); test: as above; remark: listed apart in the source
[4] = molecular target: T1, FtsZ (UniProt P0A9A6 1-383, Cy5 or Alexa488 label on part of the protein (30% labelled in the self-organization assay; <2 nM Cy5-labelled FtsZ in 1.5 uM Alexa488-labelled FtsZ for single molecules); labelled site not stated); test: cell-based or functional assay
T1 sequence (looked up): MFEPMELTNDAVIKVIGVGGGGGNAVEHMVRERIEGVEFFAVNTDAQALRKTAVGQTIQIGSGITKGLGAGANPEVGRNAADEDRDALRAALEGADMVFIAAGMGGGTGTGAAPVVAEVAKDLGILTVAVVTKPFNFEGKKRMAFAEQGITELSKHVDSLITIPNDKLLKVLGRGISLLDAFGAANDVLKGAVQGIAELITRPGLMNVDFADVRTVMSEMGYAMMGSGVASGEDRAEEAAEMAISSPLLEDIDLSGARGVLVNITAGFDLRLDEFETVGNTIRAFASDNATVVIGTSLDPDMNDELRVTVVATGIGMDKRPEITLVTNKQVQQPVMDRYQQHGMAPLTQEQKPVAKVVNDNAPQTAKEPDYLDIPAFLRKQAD

[5] = molecular target: the molecule itself; test: SEC; size-exclusion chromatography of ZapA wild type and mutants; conditions not shown

Molecule: ZapA-Cy5 (from UniProt P0ADS2 1-109) (natural protein)
FRAP half-time of recovery [1]: 3.01 s | single-molecule lifetime [2]: 0.94 s | single-molecule lifetime [3]: 0.95

EC50 of ZapA for the correlation length of the FtsZ filament network at steady state (ρss) [4]: 1050 nM | EC50 of ZapA for the mean curvature of the FtsZ filament network at steady state (kss) [4]: 840 nM
B1: ZapA wild type (natural protein, UniProt P0ADS2 1-109, looked up)
chain: MSAQPVDIQIFGRSLRVNCPPDQRDALNQAADDLNQRLQDLKERTRVTNTEQLVFIAALNISYELAQEKAKTRDYAASMEQRIRMLQQTIEQALLEQGRITEKTNQNFE
notes: ZapA, FtsZ-associated protein; also called ZapA WT; source: purified protein; protocols in the Supplementary Information
stoichiometry N [5]: 4
